test system: Escherichia coli TOP10; test: shrunken log2 fold change of peptide-encoding DNA abundance (4.5 h post-induction vs induction); higher = less antimicrobial activity (less host growth inhibition); details: time post-induction: 4.5 h; library: site-saturation at positions 5, 18, 19, 20
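Further: peptides expressed intracellularly from a pBAD plasmid library in pooled LB shake-flask culture, induced with 0.3% L-arabinose, DNA abundance read by NGS, three biological replicates, DESeq2 with apeglm shrinkage.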

| Sequence | shrunken log2 fold change |
| --- | --- |
| RRIRHRPPRLPRPRPRPFPRPRP | 0.0685 |
| RRIRQRPPRLPRPRPRPQYYPRP | -0.243 |
| RRIRCRPPRLPRPRPRPLMFPRP | -0.433 |
| RRIRTRPPRLPRPRPRPATIPRP | -0.0446 |
| RRIRHRPPRLPRPRPRPSLGPRP | 0.165 |
| RRIRQRPPRLPRPRPRPQLNPRP | -0.367 |
| RRIRVRPPRLPRPRPRPEWLPRP | 0.0685 |
| RRIRTRPPRLPRPRPRPMCYPRP | -0.252 |
| RRIRDRPPRLPRPRPRPENSPRP | 0.0647 |
| RRIRPRPPRLPRPRPRPNWWPRP | 0.717 |
| RRIRQRPPRLPRPRPRPLREPRP | 1.44 |
| RRIRARPPRLPRPRPRPMNYPRP | -0.182 |
| RRIRPRPPRLPRPRPRPYDKPRP | -0.512 |
| RRIRCRPPRLPRPRPRPSTYPRP | -0.768 |
| RRIRVRPPRLPRPRPRPNIIPRP | -0.303 |
| RRIRGRPPRLPRPRPRPDICPRP | 0.2 |
| RRIRMRPPRLPRPRPRPHTSPRP | 0.242 |
| RRIRWRPPRLPRPRPRPHCDPRP | 0.135 |
| RRIRHRPPRLPRPRPRPANFPRP | -0.0325 |
| RRIRARPPRLPRPRPRPIQHPRP | -0.132 |
| RRIRFRPPRLPRPRPRPFGLPRP | -0.635 |
| RRIRLRPPRLPRPRPRPRWIPRP | -0.074 |
| RRIRDRPPRLPRPRPRPICTPRP | 0.198 |
| RRIRTRPPRLPRPRPRPEWFPRP | 0.0821 |
| RRIRKRPPRLPRPRPRPTYLPRP | -0.201 |

| Sequence | shrunken log2 fold change |
| --- | --- |
| RRIRPRPPRLPRPRPRPRMDPRP | 0.176 |
| RRIRYRPPRLPRPRPRPMLMPRP | -0.13 |
| RRIRMRPPRLPRPRPRPCSYPRP | -0.0368 |
| RRIRFRPPRLPRPRPRPDFDPRP | -0.15 |
| RRIRQRPPRLPRPRPRPLQQPRP | -0.123 |
| RRIRRRPPRLPRPRPRPTAHPRP | 1.51 |
| RRIRHRPPRLPRPRPRPEVSPRP | -0.0122 |
| RRIRCRPPRLPRPRPRPIIIPRP | -0.816 |
| RRIRMRPPRLPRPRPRPKQVPRP | 0.0554 |
| RRIRSRPPRLPRPRPRPGVDPRP | 0.334 |
| RRIRRRPPRLPRPRPRPVEQPRP | 0.0679 |
| RRIRDRPPRLPRPRPRPKFDPRP | -0.0895 |
| RRIRLRPPRLPRPRPRPLWPPRP | 0.302 |
| RRIRWRPPRLPRPRPRPYCEPRP | -0.481 |
| RRIRKRPPRLPRPRPRPRCGPRP | 0.451 |
| RRIRDRPPRLPRPRPRPWKVPRP | -0.0565 |
| RRIRTRPPRLPRPRPRPDPAPRP | 0.0522 |
| RRIRDRPPRLPRPRPRPREAPRP | -0.0547 |
| RRIRHRPPRLPRPRPRPKCCPRP | -0.0444 |
| RRIRVRPPRLPRPRPRPDQAPRP | -0.038 |
| RRIRDRPPRLPRPRPRPNDCPRP | -0.0197 |
| RRIRERPPRLPRPRPRPSLNPRP | -0.181 |
| RRIRWRPPRLPRPRPRPKVEPRP | -0.0433 |
| RRIRCRPPRLPRPRPRPMTAPRP | 0.0275 |
| RRIRSRPPRLPRPRPRPLWSPRP | -0.0384 |

| Sequence | shrunken log2 fold change |
| --- | --- |
| RRIRQRPPRLPRPRPRPAGQPRP | -0.143 |
| RRIRSRPPRLPRPRPRPYHAPRP | -8.39e-05 |
| RRIRRRPPRLPRPRPRPFWMPRP | 0.0323 |
| RRIRCRPPRLPRPRPRPHQPPRP | 0.0495 |
| RRIRCRPPRLPRPRPRPVREPRP | 0.386 |
| RRIRYRPPRLPRPRPRPRLLPRP | -0.0826 |
| RRIRSRPPRLPRPRPRPKLTPRP | -0.06 |
| RRIRWRPPRLPRPRPRPIATPRP | 0.435 |
| RRIRKRPPRLPRPRPRPNDFPRP | -0.0772 |
| RRIRTRPPRLPRPRPRPHFQPRP | -0.294 |
| RRIRARPPRLPRPRPRPGCIPRP | 0.315 |
| RRIRDRPPRLPRPRPRPFVCPRP | -0.213 |
| RRIRYRPPRLPRPRPRPPTQPRP | -0.056 |
| RRIRFRPPRLPRPRPRPQGFPRP | -0.313 |
| RRIRPRPPRLPRPRPRPNDWPRP | 0.0287 |
| RRIRPRPPRLPRPRPRPPIYPRP | 0.0772 |
| RRIRTRPPRLPRPRPRPHNVPRP | -0.141 |
| RRIRERPPRLPRPRPRPARMPRP | 0.0587 |
| RRIRGRPPRLPRPRPRPNPVPRP | 0.145 |
| RRIRRRPPRLPRPRPRPHDAPRP | 0.197 |
| RRIRLRPPRLPRPRPRPECWPRP | 0.587 |
| RRIRSRPPRLPRPRPRPHQKPRP | -0.189 |
| RRIRFRPPRLPRPRPRPCMKPRP | 0.068 |
| RRIRRRPPRLPRPRPRPLINPRP | -0.0185 |
| RRIRWRPPRLPRPRPRPQGHPRP | 0.0837 |

| Sequence | shrunken log2 fold change |
| --- | --- |
| RRIRFRPPRLPRPRPRPCAVPRP | -0.46 |
| RRIRTRPPRLPRPRPRPSQGPRP | 0.144 |
| RRIRHRPPRLPRPRPRPKHFPRP | 0.451 |
| RRIRWRPPRLPRPRPRPKRIPRP | 0.364 |
| RRIRTRPPRLPRPRPRPPWVPRP | 0.128 |
| RRIRVRPPRLPRPRPRPKSRPRP | 0.0366 |
| RRIRTRPPRLPRPRPRPGHCPRP | -0.0671 |
| RRIRRRPPRLPRPRPRPPHQPRP | 1.32 |
| RRIRVRPPRLPRPRPRPDMVPRP | -0.0411 |
| RRIRWRPPRLPRPRPRPYFVPRP | -0.309 |
| RRIRIRPPRLPRPRPRPHSYPRP | -0.244 |
| RRIRCRPPRLPRPRPRPFRTPRP | -0.421 |
| RRIRWRPPRLPRPRPRPWPLPRP | -0.273 |
| RRIRSRPPRLPRPRPRPCIRPRP | -0.416 |
| RRIRWRPPRLPRPRPRPQEVPRP | -0.0144 |
| RRIRDRPPRLPRPRPRPMWLPRP | 0.015 |
| RRIRCRPPRLPRPRPRPRPRPRP | 0.83 |
| RRIRLRPPRLPRPRPRPHLMPRP | -0.218 |
| RRIRCRPPRLPRPRPRPMRIPRP | 0.497 |
| RRIRHRPPRLPRPRPRPLCWPRP | -0.0222 |
| RRIRRRPPRLPRPRPRPDLVPRP | 0.0743 |
| RRIRWRPPRLPRPRPRPLLTPRP | 0.324 |
| RRIRQRPPRLPRPRPRPPALPRP | -0.179 |
| RRIRVRPPRLPRPRPRPFDSPRP | -0.204 |
| RRIRERPPRLPRPRPRPTEEPRP | 0.00212 |

| Sequence | shrunken log2 fold change |
| --- | --- |
| RRIRARPPRLPRPRPRPNIRPRP | -0.289 |
| RRIRNRPPRLPRPRPRPVSEPRP | -0.253 |
| RRIRQRPPRLPRPRPRPKPFPRP | -0.101 |
| RRIRSRPPRLPRPRPRPNCDPRP | -0.00648 |
| RRIRQRPPRLPRPRPRPKEYPRP | 0.0124 |
| RRIRQRPPRLPRPRPRPFQMPRP | -0.214 |
| RRIRHRPPRLPRPRPRPHFQPRP | 0.0598 |
| RRIRRRPPRLPRPRPRPSNKPRP | -0.101 |
| RRIRWRPPRLPRPRPRPVPHPRP | 0.271 |
| RRIRLRPPRLPRPRPRPSPVPRP | -0.186 |
| RRIRIRPPRLPRPRPRPEHSPRP | 0.0398 |
| RRIRTRPPRLPRPRPRPYHYPRP | -0.185 |
| RRIRGRPPRLPRPRPRPFAIPRP | -0.0466 |
| RRIRARPPRLPRPRPRPRWEPRP | 0.431 |
| RRIRSRPPRLPRPRPRPEQKPRP | 0.0179 |
| RRIRQRPPRLPRPRPRPEFRPRP | 0.0728 |
| RRIRSRPPRLPRPRPRPDIGPRP | -0.113 |
| RRIRFRPPRLPRPRPRPWNVPRP | -0.157 |
| RRIRYRPPRLPRPRPRPYLYPRP | -0.109 |
| RRIRTRPPRLPRPRPRPYKDPRP | -0.308 |
| RRIRVRPPRLPRPRPRPEIYPRP | -0.348 |
| RRIRARPPRLPRPRPRPLKPPRP | 0.464 |
| RRIRIRPPRLPRPRPRPRNMPRP | -0.243 |
| RRIRNRPPRLPRPRPRPPNRPRP | 2.99 |
| RRIRLRPPRLPRPRPRPTFDPRP | -0.173 |

| Sequence | shrunken log2 fold change |
| --- | --- |
| RRIRFRPPRLPRPRPRPICYPRP | 0.00889 |
| RRIRIRPPRLPRPRPRPQWNPRP | -0.316 |
| RRIRHRPPRLPRPRPRPAIKPRP | 0.00883 |
| RRIRIRPPRLPRPRPRPHHIPRP | -0.641 |
| RRIRSRPPRLPRPRPRPTIFPRP | -0.377 |
| RRIRIRPPRLPRPRPRPELPPRP | 0.0135 |
| RRIRKRPPRLPRPRPRPLLIPRP | -0.11 |
| RRIRSRPPRLPRPRPRPILEPRP | 0.0161 |
| RRIRNRPPRLPRPRPRPEYGPRP | -0.284 |
| RRIRERPPRLPRPRPRPTKVPRP | 0.0356 |
| RRIRDRPPRLPRPRPRPSDAPRP | -0.218 |
| RRIRPRPPRLPRPRPRPNCDPRP | -0.257 |
| RRIRLRPPRLPRPRPRPFDKPRP | -0.151 |
| RRIRMRPPRLPRPRPRPAWMPRP | 0.189 |
| RRIRSRPPRLPRPRPRPCPRPRP | 0.056 |
| RRIRWRPPRLPRPRPRPECGPRP | 1.37 |
| RRIRHRPPRLPRPRPRPPSMPRP | -0.343 |
| RRIRCRPPRLPRPRPRPMTRPRP | -0.275 |
| RRIRNRPPRLPRPRPRPDPPPRP | 0.143 |
| RRIRFRPPRLPRPRPRPGCHPRP | -0.141 |
| RRIRSRPPRLPRPRPRPHCQPRP | -0.159 |
| RRIRKRPPRLPRPRPRPLQCPRP | 0.101 |
| RRIRNRPPRLPRPRPRPQQFPRP | -0.0018 |
| RRIRWRPPRLPRPRPRPKFPPRP | 0.944 |
| RRIRFRPPRLPRPRPRPEGLPRP | -0.0574 |
